From PMC5705538 (Journal of molecular biology, 2017) come the findings set out here.

Where “and” joins values, the source holds several entries; their conditions need not be identical. Equal entries are not always repeated.

The target of one data set is M1-linked di-ubiquitin (UniProt P0CG48 1-76; P0CG48 1-76). The data set is described as follows: SEC. (In general: SEC sorts molecules by how far they enter the pores of the column.)
The data set “SEC-MALS” deals with the molecule itself. The data set can be described thus: SEC-MALS.

B1: NEMO UBAN (192–350) (domain or fragment, human, UniProt Q9Y6K9 192-350, looked up)
chain: QQQHSVQVDQLRMQGQSVEAALRMERQAASEEKRKLAQLQVAYHQLFQEYDNHIKSSVVGSERKRGMQLEDLKQQLQQAEEALVAKQEVIDKLKEEAEQHKIVMETVPVLKAQADIYKADFQAERQAREKLAEKKELLQEQLEQLQREYSKLKASCQES
Regarding B1, in the data set with M1-linked di-ubiquitin, the binding result is on record as “binds”.

B2: NEMO (112–350) (domain or fragment, human, UniProt Q9Y6K9 112-350, looked up)
chain: LDLKRQKEQALREVEHLKRCQQQMAEDKASVKAQVTSLLGELQESQSRLEAATKECQALEGRARAASEQARQLESEREALQQQHSVQVDQLRMQGQSVEAALRMERQAASEEKRKLAQLQVAYHQLFQEYDNHIKSSVVGSERKRGMQLEDLKQQLQQAEEALVAKQEVIDKLKEEAEQHKIVMETVPVLKAQADIYKADFQAERQAREKLAEKKELLQEQLEQLQREYSKLKASCQES
Take B2: in the data set “SEC-MALS”, the “stoichiometry N” value was determined as 2.

B3: NEMO (150–350) (domain or fragment, human, UniProt Q9Y6K9 150-350, looked up)
chain: LGELQESQSRLEAATKECQALEGRARAASEQARQLESEREALQQQHSVQVDQLRMQGQSVEAALRMERQAASEEKRKLAQLQVAYHQLFQEYDNHIKSSVVGSERKRGMQLEDLKQQLQQAEEALVAKQEVIDKLKEEAEQHKIVMETVPVLKAQADIYKADFQAERQAREKLAEKKELLQEQLEQLQREYSKLKASCQES
Consider B3, for which the “stoichiometry N” value in “SEC-MALS” was 2 and 4. Further, in the data set with M1-linked di-ubiquitin, the binding result is given as “binds”.

B4: NEMO UBAN-ZF (246–419) (domain or fragment, human, UniProt Q9Y6K9 246-419, looked up)
chain: KSSVVGSERKRGMQLEDLKQQLQQAEEALVAKQEVIDKLKEEAEQHKIVMETVPVLKAQADIYKADFQAERQAREKLAEKKELLQEQLEQLQREYSKLKASCQESARIEDMRKRHVEVSQAPLPPAPAYLSSPLALPSQRRSPPEEPPDFCCPKCQYQAPDMDTLQIHVMECIE
B4: the binding result with M1-linked di-ubiquitin is “binds”.

What is called stoichiometry N is the number of molecules, sites or subunits per partner or assembly.
